Here are results for 1 molecule from patent CN102167743A (BAIMAIBO PHARMACEUTICAL CO LTD, dated 2011).

The target in the experiment is T1, EGFR (UniProt P00533 25-645, limits assumed).
T1 construct: also called 表皮生长因子受体
Kind of experiment: not described (summary of experimental results; compared with C225, 2F8 and 3C6).

B1: 全人源抗EGFR抗体15H8 (antibody, human IgG1, kappa, V domains shown)
VH: EVQLVESGGGLVQPGGSLRLSCAASGFTFSSYAMHWVRQAPGKGLEYVSAISSNGGSTYYANSVKGRFTISRDNSKNTLYLQMGSLRAEDMAVYYCAREGYSSSWYHNWFDSWGQGTLVTVSS
VL: DIVMTQTPLSLPVTPGEPASISCRSSQSLLDSDDGNTYLDWYLQKPGQSPQLLIYTLSYRASGVPDRFSGSGSGTDFTLKISRVEAEDVGVYYCMQRIEFPSLYTFGQGTKLEIKR
notes: Whole human antibody expressed in CHO-K1 and purified on Protein A. The expression genes carry a signal peptide, printed only as nucleotides; also called 15H8抗体; 全人源抗体15H8
As to B1, the binding result is “binds”.
